From patent US20240409638A1 (AVACTA LIFE SCIENCES, published 2024)

Assays:
[1] = molecular target: T1, human serum albumin (HSA) (human, UniProt P02768 25-609); assay: SPR (Biacore): immobilized ligand HSA (Sigma # A3782), AFFIMER as analyte, pH 7.0 by the legend
T1 construct: The assays used bought HSA (Sigma #A37812 in the SPR work); also called HuSA
Experimental: For the HSA binding kinetic analysis, HSA (Sigma #A37812) was immobilized on a CM5 chip surface using amine coupling in 10 mM sodium acetate (pH 5.0) (Cytvia). […] The chip surface was regenerated with 3 mM NaOH for 20 seconds at a flow rate of 20 μl/min. The kinetic data was blank subtracted and fit to a 1:1 Langmuir binding model (BIAcore evaluation software; Cytiva).

[2] = molecular target: PD-L1 on cells (NCI-H441 cells; aAPC PD-L1/CHO-K1 cells, Promega) (human, UniProt Q9NZQ7 19-290); assay: cell-based or functional assay
[3] = molecular target: T2, human PD-L1-Fc (R&D Systems) (human, UniProt Q9NZQ7 19-239); assay: SPR (Biacore) kinetics: human PD-L1-Fc immobilised on a CM5 chip, AFFIMER as analyte
T2 construct: Bought reagent; also called huPD-L1-Fc; huPD-L1; not shown: Fc part of the bought fusion

[4] = molecular target: T2, human PD-L1-Fc (R&D Systems); assay: as above; remark: listed apart in the source
[5] = molecular target: T2, human PD-L1-Fc (R&D Systems); assay: human PD-L1-Fc binding ELISA: huPD-L1-Fc coated, anti-cystatin A detection
[6] = molecular target: T2, human PD-L1-Fc (R&D Systems); assay: human PD-L1-Fc/HSA bridging ELISA: huPD-L1-Fc coated, AFFIMER titrated with 10 µM HSA, detection with HRP-conjugated anti-HSA antibody (the signal needs PD-L1 and HSA bound at once)
Experimental: After saturation with 5% casein/PBS buffer, the plates were washed and a dilution of AFFIMER® polypeptides or controls was incubated with HSA at a final concentration of 10 μM for 90 minutes. Plates were then washed, and a […] polyclonal antibody, anti-HSA (HRP-conjugated) (Abcam), was added for 90 minutes. After a last washing step, TMB was added for the development of the experiment and the plates were read at 450 nm. The EC₅₀ was then calculated using the interpolated non-linear four-parameters standard curve (FIG. 10).

[7] = molecular target: T2, human PD-L1-Fc (R&D Systems); assay: human PD-L1-Fc binding ELISA: huPD-L1-Fc coated, anti-cystatin A detection, no HSA in the assay buffer
Experimental: (§1) Plates were washed and AFFIMER® polypeptides were detected using streptavidin-HRP for 30 min. After the last washing step, the TMB substrate was added for the development of the experiment and plates were read at 450 nm. The EC₅₀ was then calculated using the interpolated non-linear four-parameters standard curve.

[8] = molecular target: T2, human PD-L1-Fc (R&D Systems); assay: SPR (Biacore) kinetics: human PD-L1-Fc immobilised on a CM5 chip, AFFIMER as analyte (column KD (pM), the same fit as the KD (M) column)
[9] = molecular target: T2, human PD-L1-Fc (R&D Systems); assay: SPR (Biacore 8K): human PD-L1-Fc amine-coupled on a CM5 chip, AFFIMER as analyte
[10] = molecular target: T2, human PD-L1-Fc (R&D Systems); assay: SPR (Biacore 8K): human PD-L1-Fc amine-coupled on a CM5 chip, AFFIMER as analyte, 1:1 Langmuir fit
[11] = molecular target: T2, human PD-L1-Fc (R&D Systems); assay: human PD-L1-Fc binding ELISA: huPD-L1-Fc coated, anti-cystatin A detection, with 10 µM HSA in the assay buffer
Experimental: as §1

[12] = molecular target: T2, human PD-L1-Fc (R&D Systems); assay: PD-L1/PD-1 competition ELISA (binding inhibition %): human PD-1-Fc coated, AFFIMER preincubated with huPD-L1-Fc at its EC80, bound PD-L1 detected; blocked ligand: human PD-1-Fc. The table column is headed 'EC50 (nM)'; the text calls the values IC50
Experimental: Plates were washed two times with washing buffer (PBS, Tween 20 0.1%) with a plate washer and saturated with Casein 5% (Sigma) in PBS for 90 minutes at room temperature (25±1° C.). […] Plates were washed 3 times as described previously. […] Plates were washed 3 times as described previously and Streptavidin-HRP was added, and the plates were incubated for 30 minutes at room temperature (25±1° C.). Plates were washed a last time and the substrate (TMB; Pierce Thermo-Scientific) was added to the plate. After 10 minutes, the reaction was stopped using an acidic solution and the plates were read at absorbance 450-630 nm. The IC₅₀ was then calculated using the interpolated non-linear four-parameters standard curve.

T2 sequence (Q9NZQ7 19-239 limits assumed): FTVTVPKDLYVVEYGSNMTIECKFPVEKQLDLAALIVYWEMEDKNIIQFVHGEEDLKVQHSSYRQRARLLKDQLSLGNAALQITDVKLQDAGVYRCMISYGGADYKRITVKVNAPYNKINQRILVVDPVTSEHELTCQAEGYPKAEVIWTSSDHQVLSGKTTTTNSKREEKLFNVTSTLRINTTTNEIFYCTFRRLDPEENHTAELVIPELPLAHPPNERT
T1 sequence (P02768 25-609): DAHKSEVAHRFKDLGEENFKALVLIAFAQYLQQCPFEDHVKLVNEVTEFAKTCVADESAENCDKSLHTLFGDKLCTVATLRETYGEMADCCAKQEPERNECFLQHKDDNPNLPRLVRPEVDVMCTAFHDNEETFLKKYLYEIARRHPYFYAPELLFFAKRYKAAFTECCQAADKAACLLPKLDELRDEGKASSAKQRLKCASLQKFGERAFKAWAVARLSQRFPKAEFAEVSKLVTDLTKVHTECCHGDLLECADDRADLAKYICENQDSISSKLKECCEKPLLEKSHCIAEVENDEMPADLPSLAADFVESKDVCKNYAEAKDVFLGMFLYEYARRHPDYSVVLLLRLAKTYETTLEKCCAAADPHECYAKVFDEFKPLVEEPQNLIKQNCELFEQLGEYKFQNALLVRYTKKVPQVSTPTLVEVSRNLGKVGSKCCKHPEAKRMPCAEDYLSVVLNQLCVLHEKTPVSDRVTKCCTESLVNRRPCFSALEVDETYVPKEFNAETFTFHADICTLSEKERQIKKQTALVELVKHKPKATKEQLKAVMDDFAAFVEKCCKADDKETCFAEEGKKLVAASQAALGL
Chain of PD-L1 on cells (NCI-H441 cells; aAPC PD-L1/CHO-K1 cells, Promega) (Q9NZQ7 19-290): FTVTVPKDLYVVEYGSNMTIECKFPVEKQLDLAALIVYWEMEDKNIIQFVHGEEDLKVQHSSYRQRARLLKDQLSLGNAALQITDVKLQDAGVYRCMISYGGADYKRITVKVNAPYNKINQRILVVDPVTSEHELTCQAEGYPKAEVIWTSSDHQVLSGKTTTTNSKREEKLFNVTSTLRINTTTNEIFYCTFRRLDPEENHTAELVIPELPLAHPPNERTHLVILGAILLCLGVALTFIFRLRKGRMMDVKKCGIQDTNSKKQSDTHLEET

Kd [1]: 9.09 nM
koff [1]: 0.00359 s⁻¹
kon [1]: 395000 M⁻¹ s⁻¹
IC50 of PD-1/PD-L1 blockade (% of inhibition, Promega NFAT-luciferase reporter cells) [2]: 131 nM
Kd [3]: 0.0796 nM
koff [3]: 0.000123 s⁻¹
kon [3]: 1.55e+06 M⁻¹ s⁻¹
Kd [4]: 0.0686 nM
koff [4]: 6.07e-05 s⁻¹
kon [4]: 884000 M⁻¹ s⁻¹
EC50 [5]: 0.01 nM
EC50 [6]: 0.57 nM
EC50 [7]: 0.036 nM
Kd [8]: 0.0796 nM
Kd [9]: 0.06 nM
koff [9]: 7.12e-05 s⁻¹
kon [9]: 1.19e+06 M⁻¹ s⁻¹
Kd [10]: 0.0391 nM
EC50 [11]: 0.04 nM
IC50 [12]: 0.84 nM
B1: Clone 80 XT35 (anti-PD-L1 type III AFFIMER® XT in-line fusion dimer XT) (designed binder)
chain: MIPGGLSEAKPATPEIQEIVDKVKPQLEEKTGETYGKLEAVQYKTQVVRRKHFPQWPGTNYYIKVRAGDNKYMHLKVFKSLDLQPREVFQEDLVLTGYQVDKNKDDELTGFAEAAAKEAAAKEAAAKEAAAKEAAAKEAAAKMIPGGLSEAKPATPEIQEIVDKVKPQLEEKTGETYGKLEAVQYKTQVVRRKHFPQWPGTNYYIKVRAGDNKYMHLKVFKSLDLQPREVFQEDLVLTGYQVDKNKDDELTGFAEAAAKEAAAKEAAAKEAAAKEAAAKEAAAKMIPRGLSEAKPATPEIQEIVDKVKPQLEEKTNETYGKLEAVQYKTQVLANFFQRRWPGSTNYYIKVRAGDNKYMHLKVFNGPWKFRNTDRGADRVLTGYQVDKNKDDELTGFHHHHHH
notes: Made in E. coli; Two Clone 80 units are fused to one HSA-41; also called XT35_1; ILF trimer format
